Where two headings read alike, the source gives them in different places.
Tests used:
[1] = test system: Staphylococcus lugdiensis; experiment: MIC of PlySs2, susceptible and non-susceptible bacterial strains; assay type: cell-based; conditions: Staphylococcus lugdiensis (10)
Listeria monocytogenes = experiment: as above; assay type: cell-based; conditions: Listeria monocytogenes (12)
[2] = test system: S. aureus MRSA strain BAA-42; experiment: Biofilm prevention assay, 24 well plate, crystal violet; assay type: cell-based; conditions: added with bacteria, 6 hours
staphylococci = experiment: PlySs2 stability at 37° C. in Lactated Ringer's solution, residual lytic activity; assay type: physicochemical; conditions: 1X MIC
Protocol: To determine the stability of PlySs2 in a simulated catheter setting, PlySs2 was incubated at various concentrations in Lactated Ringer's solution at 37° C. After 7 days, the lytic activity of PlySs2 was assessed by adding 1×10^5 staphylococci, incubating for 4 hours, then treating with proteinase K to remove residual PlySs2, and serial dilution and plating for viability. The resulting CFU value for each condition was divided by 1×10^5 to determine the % Loss of Activity.

[3] = test system: methicillin resistant S. aureus MRSA strain ATCC BAA-42; experiment: MIC by broth microdilution (CLSI M07-A9) against strain ATCC BAA-42; assay type: cell-based
[4] = test system: Staphylococcus epidermidis strains; assay type: cell-based
Lactobacillus spp. = conditions: N 6
Pseudomonas aeruginosa = Pseudomonas aeruginosa (5)
[5] = test system: MRSA strains CFS 553 (ATCC 43300) and CFS 992 (JMI 5381); experiment: MIC of PlySs2 against additional MRSA strains; assay type: cell-based, S. aureus
[6] = test system: Staphylococcus epidermidis biofilms; experiment: Biofilm eradicating concentration (BEC), 24 h biofilms in 24 well plates, crystal violet; assay type: cell-based
[7] = test system: Antibiotic-Resistant Staphylococcus aureus; experiment: MIC of PlySs2 against antibiotic-resistant S. aureus; assay type: cell-based; design: unit not given here
[8] = test system: biofilms of MRSA strain CFS 218 (MRSA strain ATCC BAA-42); experiment: Scanning electron microscopy of treated catheter biofilms; assay type: cell-based, S. aureus; conditions: 1×MIC (32 ug/ml)
From the text: Biofilms were generated on catheter tubing (PVC with DEHP as plasticizer) as above and evaluated for PlySs2 sensitivity by scanning electron microscopy (SEM). […] After fixation on the catheter surface, samples were further processed and analyzed by scanning electron microscopy at 5000× magnification (FIGS. 21A-21C). Treatment with buffer alone (ie, Lactated Ringer's Solution alone) is included as a control.

Staphylcoccus aureus = experiment: MIC of PlySs2, susceptible and non-susceptible bacterial strains; assay type: cell-based
Streptococcus pneumoniae = experiment: as above; assay type: cell-based; conditions: Streptococcus pneumoniae (26)
[9] = test system: Staphylococcus epidermidis; experiment: as above; assay type: cell-based; conditions: Staphylococcus epidermidis (11)
Lactococcus spp. = conditions: N 3
[10] = test system: MRSA biofilms grown on catheters (strain ATCC BAA-42); experiment: Catheter biofilm residual CFU, BacTiter-Glo luciferase estimate
[11] = test system: Streptococcus agalactiae, Group B; experiment: MIC of PlySs2, susceptible and non-susceptible bacterial strains; assay type: cell-based; conditions: Group B (51)
Acinetobacter baumannii = Acinetobacter baumannii (8)
[12] = CFS 533, NRS6, (VISE), bloodstream USA

B1: PlySs2: bacteriophage lysin derived from Streptococcus suis, amino acid sequence of FIG. 5 / SEQ ID NO: 1; CHAP and SH3 domains (protein, listed as Streptococcus suis)
chain: MTTVNEALNNVRAQVGSGVSVGNGECYALASWYERMISPDATVGLGAGVGWVSGAIGDTISAKNIGSSYNWQANGWTVSTSGPFKAGQIVTLGATPGNPYGHVVIVEAVDGDRLTILEQNYGGKRYPVRNYYSAASYRQQVVHYITPPGTVAQSAPNLAGSRSYRETGTMTVTVDALNVRRAPNTSGEIVAVYKRGESFDYDTVIIDVNGYVWVSYIGGSGKRNYVATGATKDGKRFGNAWGTFK
MIC 50% [1]: 8 mg/L | MIC 90% [1]: 8 mg/L | MIC Range [1]: 8 mg/L | MIC 50% (Listeria monocytogenes): 128 mg/L | MIC 90% (Listeria monocytogenes): 512 mg/L | MIC Range (Listeria monocytogenes): 1 to 512 mg/L | prevention of biofilm formation ([2]; 0.1×MIC): effectively and completely prevent | prevention of biofilm formation ([2]; 1×MIC (32 ug/ml)): effectively and completely prevent | % LOSS OF ACTIVITY (7 days) (staphylococci): 58.3% | MIC value ([3]; ATCC BAA-42, in the absence of reducing agent): 32 mg/L | Minimally inhibitory concentration (MIC) ([3]; ATCC BAA-42, in the presence of reducing agent (such as DTT or BMS)): 16 mg/L | MIC ([4]; CFS 224, HER 1292): 512 mg/L | MIC ([4]; CFS 225, HPH-6): 128 mg/L | MIC ([4]; CFS 226, HPH-5): 512 mg/L | MIC ([4]; CFS 227, HCN-4): >512 mg/L | MIC ([4]; CFS 272, NRS53 (VISE)): 128 mg/L | MIC ([4]; CFS 280, NRS101 (MRSE)): 128 mg/L | MIC ([4]; CFS 300, NRS8, (VISE)): 32 mg/L | MIC ([4]; CFS 313, NRS34 (VISE)): 8 mg/L | MIC [4, 12]: >512 mg/L | MIC ([4]; CFS 769, NRS101): 64 mg/L | CF-301 MIC (Lactobacillus spp.): >512 mg/L | MIC 50% (Pseudomonas aeruginosa): >512 mg/L | MIC 90% (Pseudomonas aeruginosa): >512 mg/L | MIC Range (Pseudomonas aeruginosa): >512 mg/L | 1×MIC ([5]; strain ATCC 4330): 16 mg/L | 1×MIC ([5]; strain JMI 5381): 32 mg/L | BEC ([6]; CFS 166, Environmental lab contaiminant): 5.12 µg/mL | BEC ([6]; CFS 224, HER 1292): 5.12 µg/mL | BEC ([6]; CFS 225, HPH-6): 0.512 µg/mL | BEC ([6]; CFS 226, HPH-5): 5.12 µg/mL | BEC ([6]; CFS 227, HCN-4): 5.12 µg/mL | BEC ([6]; CFS 272, NRS53 (VISE)): 0.215 µg/mL | BEC ([6]; CFS 280, NRS101 (MRSE)): 0.512 µg/mL | BEC ([6]; CFS 300, NRS8, (VISE)): 0.512 µg/mL | BEC ([6]; CFS 313, NRS34 (VISE)): 0.512 µg/mL | BEC [6, 12]: 0.512 µg/mL | BEC ([6]; CFS 552, ATCC #12228 (MSSE)): 51.2 µg/mL | BEC ([6]; CFS 769, NRS101): 0.512 µg/mL | BEC ([6]; CFS 1152, ATCC-14990): 5.12 µg/mL | BEC ([6]; CFS 1154, ATCC-49461): 5.12 µg/mL | BEC ([6]; CFS 1161, NRS850-VCU028): 5.12 µg/mL | BEC ([6]; CFS 1164, NRS853-VCU041): 5.12 µg/mL | BEC ([6]; CFS 1165, NRS854-VCU045): 5.12 µg/mL | BEC ([6]; CFS 1168, NRS857-VCU065): 0.512 µg/mL | BEC ([6]; CFS 1174, NRS864-VCU112): 51.2 µg/mL | BEC ([6]; CFS 1184, NRS874-VCU126): 5.12 µg/mL | BEC ([6]; CFS 1185, NRS875-VCU127): 5.12 µg/mL | BEC ([6]; CFS 1186, NRS876-VCU128): 0.512 µg/mL | MIC 50% ([7]; Daptomycin-resistant (8)): 2 | MIC 90% ([7]; Daptomycin-resistant (8)): 4 | MIC Range ([7]; Daptomycin-resistant (8)): 2-4 | MIC 50% ([7]; Linezolid-resistant (5)): 2 | MIC 90% ([7]; Linezolid-resistant (5)): 2 | MIC Range ([7]; Linezolid-resistant (5)): 2-4 | MIC 50% ([7]; Vancomycin-intermediate (31)): 8 | MIC 90% ([7]; Vancomycin-intermediate (31)): 32 | MIC Range ([7]; Vancomycin-intermediate (31)): 1-64 | MIC 50% ([7]; Vancomycin-resistant (14)): 2 | MIC 90% ([7]; Vancomycin-resistant (14)): 4 | MIC Range ([7]; Vancomycin-resistant (14)): 1-4 | biofilm on catheter surface by SEM ([8]; 30 seconds): rapidly diminishes | biofilm on catheter surface by SEM ([8]; 15 minutes): almost completely removes | MIC 50% (Staphylcoccus aureus; Methicillin resistant (120)): 4 mg/L | MIC 90% (Staphylcoccus aureus; Methicillin resistant (120)): 8 mg/L | MIC Range (Staphylcoccus aureus; Methicillin resistant (120)): 1 to 16 mg/L | MIC 50% (Staphylcoccus aureus; Methicillin susceptible (103)): 4 mg/L | MIC 90% (Staphylcoccus aureus; Methicillin susceptible (103)): 8 mg/L | MIC Range (Staphylcoccus aureus; Methicillin susceptible (103)): 1 to 16 mg/L | MIC 50% (Streptococcus pneumoniae): 16 mg/L | MIC 90% (Streptococcus pneumoniae): 64 mg/L | MIC Range (Streptococcus pneumoniae): 1 to 64 mg/L | MIC 50% [9]: 128 mg/L | MIC 90% [9]: 512 mg/L | MIC Range [9]: 4 to 512 mg/L | CF-301 MIC (Lactococcus spp.): >512 mg/L | CFUs remaining in catheter biofilm ([10]; 1×MIC, 24 hours, 100 CFU/ml is the limit of detection): 100 CFU/ml | lowest concentration active at removing biofilm bacteria ([10]; titration, CFU): 0.01 ×MIC | MIC 50% [11]: 8 mg/L | MIC 90% [11]: 16 mg/L | MIC Range [11]: 1 to 64 mg/L | MIC 50% (Acinetobacter baumannii): >512 mg/L | MIC 90% (Acinetobacter baumannii): >512 mg/L | MIC Range (Acinetobacter baumannii): >512 mg/L

— patent US11524046B2, “Biofilm prevention, disruption and treatment with bacteriophage lysin” (priority 2012, dated 2022)
